Patent US20220177594A1 (ZOETIS SERVICES, published 2022)
Changes are numbered by the printed parent chain. Read-outs that look alike come from different tables or passages of the source. Values belong to the binder of their own block, whether it stands above or below them.

Tests used:
[1] = biological target: T1, feline OSMR on feline Fcwf-4 cells (feline, UniProt A0ABI8A843 28-960); test: cell-based or functional assay
T1 sequence: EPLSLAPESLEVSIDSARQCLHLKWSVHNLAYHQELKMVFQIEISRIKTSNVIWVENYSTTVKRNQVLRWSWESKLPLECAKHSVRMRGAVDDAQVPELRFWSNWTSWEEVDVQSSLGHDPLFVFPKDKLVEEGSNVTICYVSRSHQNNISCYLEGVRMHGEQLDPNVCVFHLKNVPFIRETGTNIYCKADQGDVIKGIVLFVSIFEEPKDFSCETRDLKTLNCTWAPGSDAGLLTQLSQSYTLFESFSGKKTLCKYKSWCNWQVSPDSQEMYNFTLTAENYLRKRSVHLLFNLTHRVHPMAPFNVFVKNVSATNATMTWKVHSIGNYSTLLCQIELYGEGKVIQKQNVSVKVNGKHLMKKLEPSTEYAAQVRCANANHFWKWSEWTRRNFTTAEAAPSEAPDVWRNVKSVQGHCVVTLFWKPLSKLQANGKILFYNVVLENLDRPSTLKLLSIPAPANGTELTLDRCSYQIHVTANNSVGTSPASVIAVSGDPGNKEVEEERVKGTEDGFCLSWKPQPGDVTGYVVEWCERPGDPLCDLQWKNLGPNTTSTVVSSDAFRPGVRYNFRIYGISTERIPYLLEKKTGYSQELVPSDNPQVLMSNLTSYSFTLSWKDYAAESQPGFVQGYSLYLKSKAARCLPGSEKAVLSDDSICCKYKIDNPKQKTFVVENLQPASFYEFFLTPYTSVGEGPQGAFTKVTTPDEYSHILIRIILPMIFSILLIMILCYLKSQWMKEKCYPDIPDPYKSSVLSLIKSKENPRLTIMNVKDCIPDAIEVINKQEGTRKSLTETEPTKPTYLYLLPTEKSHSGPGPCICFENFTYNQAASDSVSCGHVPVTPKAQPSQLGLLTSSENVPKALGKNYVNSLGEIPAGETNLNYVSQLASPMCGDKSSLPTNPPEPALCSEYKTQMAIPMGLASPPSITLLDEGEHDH

[2] = biological target: T2, canine OSMR on canine cells (canine, UniProt A0A8I3MI11 28-967); test: cell-based or functional assay
T2 sequence: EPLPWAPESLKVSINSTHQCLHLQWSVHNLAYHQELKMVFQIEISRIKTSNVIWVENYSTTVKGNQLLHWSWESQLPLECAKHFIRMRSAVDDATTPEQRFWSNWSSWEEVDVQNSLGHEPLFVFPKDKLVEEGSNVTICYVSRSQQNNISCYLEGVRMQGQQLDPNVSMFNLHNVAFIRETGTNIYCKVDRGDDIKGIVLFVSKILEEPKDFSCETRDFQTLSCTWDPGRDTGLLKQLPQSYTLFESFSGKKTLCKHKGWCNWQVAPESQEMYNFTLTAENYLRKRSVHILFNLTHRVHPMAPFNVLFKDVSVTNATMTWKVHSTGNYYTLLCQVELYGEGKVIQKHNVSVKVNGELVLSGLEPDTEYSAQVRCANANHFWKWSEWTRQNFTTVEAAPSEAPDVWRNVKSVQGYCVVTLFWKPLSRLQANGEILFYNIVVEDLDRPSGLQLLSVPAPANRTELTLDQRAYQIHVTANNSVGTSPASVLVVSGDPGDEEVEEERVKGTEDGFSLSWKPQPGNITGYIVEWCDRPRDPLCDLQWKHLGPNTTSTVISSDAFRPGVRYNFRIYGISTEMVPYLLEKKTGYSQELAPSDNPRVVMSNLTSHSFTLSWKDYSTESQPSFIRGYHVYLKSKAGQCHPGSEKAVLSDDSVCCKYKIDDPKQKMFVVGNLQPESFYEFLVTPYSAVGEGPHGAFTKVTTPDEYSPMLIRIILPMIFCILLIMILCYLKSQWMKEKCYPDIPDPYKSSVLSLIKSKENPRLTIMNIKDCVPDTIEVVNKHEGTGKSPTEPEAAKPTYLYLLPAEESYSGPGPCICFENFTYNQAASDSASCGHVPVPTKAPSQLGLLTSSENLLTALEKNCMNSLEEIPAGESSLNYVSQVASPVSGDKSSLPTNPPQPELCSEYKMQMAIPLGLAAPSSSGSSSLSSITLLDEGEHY

[3] = biological target: T1, feline OSMR on feline Fcwf-4 cells; test: cell-based or functional assay; remark: listed apart in the source
[4] = biological target: T2, canine OSMR on canine cells; test: cell-based or functional assay; remark: listed apart in the source
[5] = biological target: T3, Human_OSMR (human, UniProt Q99650 28-739); test: SPR Biacore, OSMR on chip
T3 construct: Bought protein; also called hOSMR
T3 sequence: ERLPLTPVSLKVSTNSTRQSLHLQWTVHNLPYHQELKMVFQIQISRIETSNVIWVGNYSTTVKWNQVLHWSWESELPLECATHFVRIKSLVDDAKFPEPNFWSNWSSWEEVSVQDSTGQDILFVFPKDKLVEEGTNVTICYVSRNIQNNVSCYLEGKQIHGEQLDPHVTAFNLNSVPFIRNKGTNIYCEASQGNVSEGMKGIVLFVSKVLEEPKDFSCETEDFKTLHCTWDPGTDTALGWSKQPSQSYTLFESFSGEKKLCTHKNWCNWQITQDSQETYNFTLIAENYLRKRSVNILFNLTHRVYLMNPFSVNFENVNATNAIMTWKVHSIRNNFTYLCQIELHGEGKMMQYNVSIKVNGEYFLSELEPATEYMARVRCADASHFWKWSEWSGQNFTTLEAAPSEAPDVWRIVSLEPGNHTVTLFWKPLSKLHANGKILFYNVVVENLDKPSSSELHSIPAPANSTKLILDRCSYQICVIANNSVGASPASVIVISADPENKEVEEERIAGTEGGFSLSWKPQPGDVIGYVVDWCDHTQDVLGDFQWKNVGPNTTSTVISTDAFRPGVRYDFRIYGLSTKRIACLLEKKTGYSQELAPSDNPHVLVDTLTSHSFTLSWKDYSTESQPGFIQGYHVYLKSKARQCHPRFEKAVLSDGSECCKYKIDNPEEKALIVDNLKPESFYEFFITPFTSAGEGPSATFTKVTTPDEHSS

[6] = biological target: T3, Human_OSMR; test: SPR Biacore, OSMR on chip; remark: listed apart in the source
Procedure: (§1) The affinity with which candidate mAbs bind canine, feline, and human (SEQ ID NO: 122; Human_OSMR) (R&D Systems, Minneapolis, Minn.) OSMR was determined using surface plasmon resonance (SPR) on a Biacore system (Biacore Life Sciences (GE Healthcare), Uppsala, Sweden). To avoid affinity differences associated with differential surface preparation that can occur when immobilizing antibodies to surfaces; OSMR from each species was directly conjugated to individual surfaces. Immobilization was obtained by amine coupling 5 μg/mL OSMR using N-hydroxysuccinimide (NHS)/1-Ethyl-3-(3-dimethylaminopropyl) carbodiimide (EDC) chemistry. Chips were quenched with ethanolamine and the affinity with which all candidate mAbs bound to the immobilized OSMR was evaluated. All curves were fit to a 1:1 model. […] Results for affinity measurements are described herein.

[7] = biological target: T4, ANTIBODY EXPRESSION CONTROL; test: SPR Biacore, expression control
T4 construct: also called mouse anti-canine antibody (capture reagent of the expression control ELISA)
Procedure: as §1
Data from an ELISA represents an equilibrium state where the antibody is allowed to associate and dissociate over a one-hour period resulting in steady-state binding. Using Biacore, the target protein is immobilized to a surface and the antibody is passed over this surface in a mobile liquid phase. Protein-protein interaction is determined from changes in the surface resonance which allows for calculation of association (kₐ), disassociation (kd), and affinity constant (KD). While not wishing to be bound to one hypothesis we present data from ELISA and Biacore experiments, using the same preparation of antibody, that may result in agreement between the two methods with respect to binding but also may show contradictory results due to the nature of the binding kinetics and different assay dynamics. The data presented in Table A (in combination with experimental results from yeast display mutational analysis in Example 21) allow for the definition of a structure:function relationship to be defined between the anti-OSMR antibodies described here and their ability to bind and block IL-31 and OSM-mediated signaling through the OSMR receptor.

% inh of feline IL-31 pSTAT3 signaling, feline Fcwf-4 cells [1]: 90 % inh
% inh of canine IL-31 pSTAT3 signaling, canine DH82 cells [2]: 87 % inh
IC50, inhibition of canine OSM pSTAT3 signaling, canine DH82 cells [2]: 0.27 µg/ml
IC50, inhibition of canine OSM pSTAT3 signaling, feline Fcwf-4 cells [3]: 0.68 µg/ml
IC50, inhibition of feline IL-31 pSTAT3 signaling, feline Fcwf-4 cells [3]: 0.42 µg/ml
IC50, inhibition of canine IL-31 pSTAT3 signaling, canine DH82 cells [4]: 0.07 µg/ml
IC50, inhibition of canine OSM pSTAT3 signaling, canine DH82 cells [4]: 0.27 µg/ml
binding result [5]: no binding
B1: Mu_19F07 (antibody, V domains shown)
VH: EVKLVESEGGLVQPGSSMKLSCTASGFTFSDYYMAWVRQVPEKGLEWVANINYDGSSTYYLDSLKSRFIISRDNAKNILYLQMSSLKSEDTATYYCARGLTWDFDVWGTGTTVTVSS
VL: DIVMTQSHKFMSPSVGDRVSITCKASQDVDTAVAWYQQKPGQSPKLLIYLASTRHTGVPDRFTGSGSGTDFTLTISNVQSEDLADYFCQQYSRFPLTFGAGTKLELK
notes: Mouse hybridoma IgG

binding result [6]: no binding
Kd [7]: 0.082 nM
koff [7]: 2.29e-05 s⁻¹
kon [7]: 281000 M⁻¹ s⁻¹
IC50, inhibition of canine IL-31 pSTAT3 signaling, canine DH82 cells [4]: 0.28 µg/ml
IC50, inhibition of canine OSM pSTAT3 signaling, canine DH82 cells [4]: 0.26 µg/ml
B2: mouse: canine 19F07 chimera (antibody, V domains shown)
VH: B1 VH
VL: DIVMTQSHKFMSPSVGDRVSITCKASQDVDTAVAWYQQKPGQSPKLLIYLASTRHTGVPDRFTGSGSGTDFTLTISNVQSEDLADYFCQQYSRFPLTFGAGTKLELKR
notes: Mouse variable domains on canine IgG constant regions; also called 19F07 (Mouse:Canine); mouse:dog chimera 19F07

% inh of feline IL-31 pSTAT3 signaling, feline Fcwf-4 cells [1]: 0 % inh
% inh of canine IL-31 pSTAT3 signaling, canine DH82 cells [2]: 72 % inh
IC50, inhibition of canine OSM pSTAT3 signaling, canine DH82 cells [2]: 0.73 µg/ml
% inh of feline IL-31 pSTAT3 signaling, feline Fcwf-4 cells [3]: 0 % inh @ 75 µg/ml
IC50, inhibition of canine IL-31 pSTAT3 signaling, canine DH82 cells [4]: 5.65 µg/ml
IC50, inhibition of canine OSM pSTAT3 signaling, canine DH82 cells [4]: 8.64 µg/ml
binding result [5]: no binding
B4: Mu_14C04 (antibody, V domains shown)
VH: EVQLQESGAELVKPGASVKISCKASGYAFSNYWMNWMKQRPGKGLEWIGQIYPGHVNTNYNGNFKDKATLTADKSSSTAYMQLSSLTSEDSAVYFCARSADNSGFVLFAYWGQGTLVTVS
VL: DIVLTQSPASLAVSLGQRATISCRASKSVSTSGYSYLHWYQQKPGQPPKLLIFLASNLESGVPARFSGSGSGTDFTLNIHPVEEEDAATYYCQHSRELPLTFGAGTKLELK
notes: Mouse hybridoma IgG

Further lines, the binder ahead of its results:

B3: Mu_02D09 (antibody, V domains shown)
VH: EVQLVESGGGLVKPGGSLTLSCAASGFTFSDYGMHWLRQAPEKGLEWVAYISSGSRAVFFADTVKGRFTISRDNAKNTLFLQMTSLRSDDTAMYYCARDRYDGRGFAYWGQGTLVTVSA
VL: DIVLTQSPATLSVTPGDSVSLSCRASQSISNNLHWYQQTSHESPRLLITYASQSISGIPSRFSGSGSGTDFTLSINSVETEDFGMYFCQQSNSWPLTFGAGTKLELK
notes: Mouse hybridoma IgG; also called mouse anti-OSMR 02D09
% inh of feline IL-31 pSTAT3 signaling, feline Fcwf-4 cells [1]: 67 % inh
% inh of canine IL-31 pSTAT3 signaling, canine DH82 cells [2]: 0 % inh
IC50, inhibition of canine OSM pSTAT3 signaling, canine DH82 cells [2]: > 50 µg/ml
% inh of feline IL-31 pSTAT3 signaling, feline Fcwf-4 cells [3]: 67 % inh @ 75 µg/ml
% inh of canine IL-31 pSTAT3 signaling, canine DH82 cells [4]: 0 % inh @ 75 µg/ml
IC50, inhibition of canine OSM pSTAT3 signaling, canine DH82 cells [4]: > 50 µg/ml
binding result [5]: no binding

B5: Mu_09E09 (antibody, V domains shown)
VH: DVKLVESGEGLVKPGGSLKLSCAASGFTFSSYAMSWVRQTPEKRLEWVAYISSGGDYIYYADTVKGRFTISRDNARNTLYLQMSSLKSEDTAMYYCTRDPITGTFAYWGQGTLVTVSA
VL: DLQMTQTTSSLSASLGDRVTISCRASQDINNYLNWYQQKPDGTVKLLIYYTSTLHSGVPSRFSGSGSGTDYSLTISNLEQEDIATYFCQQGNTLPWTFGGGTKLEIK
notes: Mouse hybridoma IgG
% inh of feline IL-31 pSTAT3 signaling, feline Fcwf-4 cells [1]: 63 % inh
% inh of canine IL-31 pSTAT3 signaling, canine DH82 cells [2]: 80 % inh
% inh of feline IL-31 pSTAT3 signaling, feline Fcwf-4 cells [3]: 63 % inh @ 75 µg/ml
% inh of canine IL-31 pSTAT3 signaling, canine DH82 cells [4]: 80 % inh @ 75 µg/ml
binding result [5]: no binding

B6: Mu_10F07 (antibody, V domains shown)
VH: B5 VH with A49T, I58F
VL: B5 VL with L2I, N30T, Y71F, N92H, T93M
notes: Mouse hybridoma IgG
% inh of feline IL-31 pSTAT3 signaling, feline Fcwf-4 cells [1]: 91 % inh
% inh of canine IL-31 pSTAT3 signaling, canine DH82 cells [2]: 93 % inh
IC50, inhibition of canine OSM pSTAT3 signaling, canine DH82 cells [2]: 0.04 µg/ml
% inh of feline IL-31 pSTAT3 signaling, feline Fcwf-4 cells [3]: 91 % inh @ 75 µg/ml
IC50, inhibition of canine OSM pSTAT3 signaling, feline Fcwf-4 cells [3]: 0.23 µg/ml
% inh of canine IL-31 pSTAT3 signaling, canine DH82 cells [4]: 93 % inh @ 75 µg/ml
IC50, inhibition of canine OSM pSTAT3 signaling, canine DH82 cells [4]: 0.05 µg/ml
binding result [5]: no binding
